The EC50 is the concentration that produces a half-maximal response. Higher therefore signals a less potent agent. Broadly, the Kd is the concentration at which binding is half-saturated. For orientation: koff means the first-order rate constant of dissociation. As a reminder, the kon is the second-order rate constant of association.

Assay [1] deals with T1, human galectin-10-His (human).
T1 construct: The last M of the tag may be Met1 of galectin-10; also called humanGal10-His; hGal10
T1 chain: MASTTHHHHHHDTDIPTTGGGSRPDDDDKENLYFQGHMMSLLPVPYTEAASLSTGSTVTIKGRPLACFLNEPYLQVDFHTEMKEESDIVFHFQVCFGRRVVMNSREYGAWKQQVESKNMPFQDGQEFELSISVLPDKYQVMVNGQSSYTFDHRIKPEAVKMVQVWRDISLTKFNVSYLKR
The assay is described as follows: ELISA, galectin-10-His coated at 1 ug/mL, Fab. The procedure: The binding capacity of the lead anti-galectin-10 Fabs was tested by binding ELISA. Briefly, a Maxisorp plate was coated overnight with 1 μg/mL of human galectin-10-His. Then a serial dilution of each clone (from 4 μM, dilution 1/4, 12 points of dilutions) was incubated on coated galectin-10. After several washing steps, detection of the bound Fab was carried out with an anti-human IgG Fab specific-peroxidase. Absorbance was measured at 450 nm (reference at 620 nm) with Tecan instrument.
On the technique in general: An ELISA detects its analyte on a solid surface through an enzyme-linked reagent.

Assay [2] deals with T2, recombinant human galectin-10, TEV-cleaved (human, UniProt Q05315 1-142).
T2 sequence: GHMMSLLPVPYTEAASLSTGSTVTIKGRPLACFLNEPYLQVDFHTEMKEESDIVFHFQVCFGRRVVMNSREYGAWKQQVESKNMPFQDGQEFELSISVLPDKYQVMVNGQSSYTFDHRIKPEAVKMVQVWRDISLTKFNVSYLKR
The assay is described as follows: cell-based or functional assay.

Assay [3] concerns the target T3, cynomolgus galectin-10-His, WGS isoform (cynomolgus).
T3 construct: also called cynoGal10-WGS; not shown: His tag
T3 chain: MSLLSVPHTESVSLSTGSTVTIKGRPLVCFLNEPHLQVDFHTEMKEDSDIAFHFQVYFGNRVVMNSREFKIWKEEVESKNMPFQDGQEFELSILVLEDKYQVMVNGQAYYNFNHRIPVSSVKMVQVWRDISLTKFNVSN
The assay is described as follows: ELISA, coated antigen 0.5 ug/mL. The procedure: (§1) In a similar setup to that used during the characterization of the scFv-human Fc molecules, the relative binding properties of the 7 mouse IgG1 antibodies were analyzed by ELISA. A Maxisorp plate was coated overnight with 0.5 μg/mL of human or cynomolgus WGS or YRT isoform of galectin-10-His. Then a serial dilution of each clone (from 100 nM, dilution 1/4, 12 points of dilutions) was incubated on coated galectin-10. After several washing steps, detection of the bound mouse IgG1 was carried out with an anti-mouse Fc-HRP antibody (DAMPO, Jackson ImmunoResearch, Catalog 715-035-150). Absorbance was measured at 450 nm (reference at 620 nm) with Tecan instrument. The raw data (OD values) were plotted on GraphPad Prism 7.01. The EC50 values for each antibody, calculated with a non-linear regression (log(agonist) vs. response Variable slope (four parameters)), are shown in the table below. Antibody 1D11 from the previous panel was included for comparison.

Assay [4] concerns the target T1, human galectin-10-His. The assay is described as follows: ELISA, coated antigen 0.5 ug/mL. The procedure:
as §1

The target in assay [5] is T1, human galectin-10-His. The assay is described as follows: SPR Biacore T3000, mouse IgG1 captured. The procedure:
The binding capacity of the mouse IgG1 antibody panel to galectin-10 was analysed on Biacore T3000. For this purpose, a capture approach was used, where a fixed concentration (1.5 μg/mL) of the mouse IgG1 clone was captured by polyclonal anti-mouse Fc antibodies immobilized on CM5 Chip to reach a binding signal around 150 RU. Then a serial dilution of human and cynomolgus WGS isoform of galectin-10-His (serial dilution, 1 over 2 from 5 μg/mL) diluted in HBS-EP pH7.4 was injected. Raw data were analysed via BIA evaluation software with a blank subtraction. The kd/KD and Rmax of each mAbs to galectin-10-His was determined using the Fit Kinetics simultaneous ka/kd/Binding with mass transfer/Local Rmax on BIA evaluation software.
(In SPR one partner is held on a chip, and binding of the other changes the refractive index at the surface.)

The target of assay [6] is T2, recombinant human galectin-10, …. As to the kind of experiment: cell-based or functional assay. This is another data set of the same source.

Substitutions are numbered along the chain they refer to. A value given as a limit tells only on which side of the number the result lay.

B1: 11F02 Fab (Fab, V domains shown)
VH: ELQVVESGGGLVQPGGSLRLSCAASGFTFSTNYMNWVRQAPGKGLEWVSGITSHGARTYYADSVKGRFTISRDNSKNTLYLQMNSLKPEDTALYYCARTDHASLDAWGQGTLVTVSS
VL: QTVVTQEPSLSVSPGGTVTLTCGLSSGSVTSSNYPGWYQQKPGQAPRTLIYNTNSRYSGVPNRFSGSISGNKAALTITGAQPEDEADYYCALYMGSSSYNTVFGGGTHLTVL
notes: Fab with human CH1 (including part of the hinge region) and human lambda constant domain; also called 11F02 hFab
Regarding B1, in the assay with human galectin-10-His [1], the Bmax was 0.46 OD and the EC50 came to 81.4 nM. In addition, in assay [2], the “50% crystal dissolution (min), 50 uM” value was determined as 77.9 min and the “90% crystal dissolution (min), 50 uM” value is above 120 min.

B2: 11F12 Fab (Fab, V domains shown)
VH: B1 VH with E1Q, L2V, V4L, V5Q, H54G, A56G, S75A, S103W
VL: HSAVTQPPSVSGTLGKTVTISCAGTSSDVGYGNYVSWYQHLPGTAPKLLIYAVSTRASGVPDRFSGSKSGNTASLTISGLQSEDEGDYYCASYSVRNNVVFGGGTRLTVL
notes: Fab with human CH1 (including part of the hinge region) and human lambda constant domain; also called 11F12 hFab
In the assay with human galectin-10-His [1], B2 returned a Bmax of 1.38 OD and an EC50 of 22.4 nM. In assay [2], the “50% crystal dissolution (min), 50 uM” value came out at 62 min and the “90% crystal dissolution (min), 50 uM” value was above 120 min.

B3: 1D11 mouse IgG1 (antibody, V domains shown)
VH: QVQLVESGGGLVQPGGSLRLSCAASGFTFDDYAMSWVRQAPGKGLEWVSGISWNGGSTYYAESMKGRFTISRDNAKNTLYLQMNSLKSEDTAVYYCAKDRNLGYRLGYPYDYWGQGTQVTVSS
VL: QSVLTQPPSVSGSPGETVTISCAGTSSDVGYGNYVSWYQQLPGMAPRLLIYEVNKRASGITDRFSGSKSGNTASLTISGLQSEDEGDYYCASYRSSNNAVFGGGTHLTVL
notes: Llama VH and VL on mouse IgG1 heavy chain constant domains (CH1-CH2-CH3) and mouse lambda light chain constant domain; also called 1D011; 1D11 mIgG1
On to B3, for which, in assay [3], the OD values was found to be 0.05 OD and the binding result is on record as “no binding (tested: serial dilution from 100 nM)”. Also, in the assay with human galectin-10-His [4], the EC50 turned out to be 0.1 nM and the OD values stood at 2 OD. Further, in the assay with human galectin-10-His [5], the Kd was 0.7 nM, the koff is 0.00931 s⁻¹ and the kon is 1.27e+07 M⁻¹ s⁻¹. Besides, in assay [6], the “50% dissolution (min) of CLCs, antibody 50 uM” value came out at 30.1 min and the “90% dissolution (min) of CLCs, antibody 50 uM” value was found to be 56.7 min. For the same molecule, in assay [2], the “50% crystal dissolution (min), 50 uM” value was determined as 100 min and the “90% crystal dissolution (min), 50 uM” value is above 120 min.

B4: 1D11 Fab (Fab, V domains shown)
VH: B3 VH
VL: B3 VL
notes: Fab with human CH1 (including part of the hinge region) and human lambda constant domain; also called Fab-1D11; 1D11 hFab
In the assay with human galectin-10-His [1], B4 returned a Bmax of 1.59 OD and an EC50 of 1.4 nM. Further, in assay [2], the “50% crystal dissolution (min), 50 uM” value was 33.4 min and the “90% crystal dissolution (min), 50 uM” value was 97.8 min.

B5: 10B02 Fab (Fab, V domains shown)
VH: QVQLVESGGGLVQPGGSLRVSCAASGFTFSYHYMNWVRQAPGKGLEWVSGISAGGGRTYYADSVKGRFTISRDNAKNTLYLQMNSLNAEDTALYYCARVHGITNDYWGQGTQVTVSS
VL: B3 VL with V3A, E16K, R47K, S74F, G86A, S95N, A99W
notes: Fab with human CH1 (including part of the hinge region) and human lambda constant domain; also called 10B02 hFab
For the molecule B5, in the assay with human galectin-10-His [1], the Bmax worked out at 0.74 OD and a half-maximal effect (EC50) was put at 61.2 nM. Further, in assay [2], the “50% crystal dissolution (min), 50 uM” value came out at 102 min and the “90% crystal dissolution (min), 50 uM” value is above 120 min.

B6: 10D02 Fab (Fab, V domains shown)
VH: EVQLVESGGGLVQPGGSLRVSCAASGFTFSSYYMSWVRQAPGKGLEWVSGIVTGGGRTHYTDSVKGRFTITRDNAKNTLYLQMNSLRPEDTALYYCARVNGVVTNYDYWGQGTQVTVSS
VL: B3 VL with S2A, E16K, R47K, E52D, G86A, Y89F, S96P, A99V, G103Q
notes: Fab with human CH1 (including part of the hinge region) and human lambda constant domain; also called 10D2; 10D02 hFab
In the assay with human galectin-10-His [1], B6 displayed a Bmax of 1.03 OD and an EC50 of 16.1 nM. Besides, in assay [2], the “50% crystal dissolution (min), 50 uM” value stood at 59.7 min and the “90% crystal dissolution (min), 50 uM” value was above 120 min.

These data come from patent US20190367619A1 (ARGENX, published 2019).
